Biological target: BamD_(R49C) (E. coli) (UniProt P0AC02)
Assay: cross-linking

Substance: ^MBP−76EspP_(D1218C)
- percent crosslinked (plateau after oxidation with 4-DPS): 40%
- percent crosslinked spontaneously (Ox-, no oxidant): 10%

Reference: article PMC8985213
